According to the supplement of paper PMC5949888:

The sequences below were run on Saccharomyces cerevisiae PS128 hsf1 delta, HSF1(1-493) fusion (assay: growth estimate (transactivation domain function in HSF1 fusion, heat-shock survival) (a.u. (slope of normalised read count over time)); higher = stronger growth at 37°C, i.e. more transactivation activity). Conditions: library: design library.
How it was run: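 Designed transactivation-domain oligos were fused to truncated yeast HSF1 (amino acids 1–493) and expressed in an hsf1-deleted yeast strain. Cells were replica-plated onto –trp 5-FOA plates and incubated at 30°C or 37°C for 0, 2, 4, 6 and 8 days. Inserts were PCR-amplified and Illumina MiSeq-sequenced as six barcoded replicates from one experiment. Growth estimate is the slope of a robust linear fit over time of read counts normalised to sample totals and starting count.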

| Sequence | growth estimate |
| --- | --- |
| DRDLDMLGDFDLDMLG | 0.301 |
| DRLSWIIELLEKDG | < -0.25 |
| EADDEFSLWDSML | 0.306 |
| EANDLLDLDFILSN | 0.0838 |
| EDADEFSLWDSML | 0.354 |
| EDAYSILWSDVY | -0.234 |
| EDDAEFSLWDSML | 0.0227 |
| EDDDAFSLWDSML | 0.237 |
| EDDDEASLWDSML | < -0.25 |
| EDDDEFALWDSML | 0.128 |
| EDDDEFGLWDSML | 0.402 |
| EDDDEFKLWDSML | 0.0998 |
| EDDDEFPLWDSML | 0.199 |
| EDDDEFRLWDSML | -0.0562 |
| EDDDEFSAWDSML | -0.0271 |
| EDDDEFSGWDSML | 0.0815 |
| EDDDEFSKWDSML | -0.228 |
| EDDDEFSLADSML | -0.236 |
| EDDDEFSLGDSML | < -0.25 |
| EDDDEFSLKDSML | < -0.25 |
| EDDDEFSLPDSML | -0.126 |
| EDDDEFSLRDSML | -0.248 |

| Sequence | growth estimate |
| --- | --- |
| EDDDEFSLWASML | 2.21 |
| EDDDEFSLWDGML | 0.875 |
| EDDDEFSLWDKML | -0.201 |
| EDDDEFSLWDPML | 3.13 |
| EDDDEFSLWDRML | -0.15 |
| EDDDEFSLWDSAL | < -0.25 |
| EDDDEFSLWDSGL | -0.19 |
| EDDDEFSLWDSKL | < -0.25 |
| EDDDEFSLWDSMA | -0.238 |
| EDDDEFSLWDSMG | -0.226 |
| EDDDEFSLWDSMK | < -0.25 |
| EDDDEFSLWDSML | 1.95 |
| EDDDEFSLWDSMP | -0.236 |
| EDDDEFSLWDSMR | -0.239 |
| EDDDEFSLWDSPL | 0.011 |
| EDDDEFSLWGSML | 1.19 |
| EDDDEFSLWKSML | < -0.25 |
| EDDDEFSLWPSML | -0.166 |
| EDDDEFSLWRSML | -0.116 |
| EDDDEFSPWDSML | -0.228 |
| EDDDEFSRWDSML | -0.0194 |
| EDDDEGSLWDSML | < -0.25 |

| Sequence | growth estimate |
| --- | --- |
| EDDDEKSLWDSML | -0.0523 |
| EDDDEPSLWDSML | 0.0815 |
| EDDDERSLWDSML | < -0.25 |
| EDDDGFSLWDSML | 0.241 |
| EDDDPFSLWDSML | 2.41 |
| EDDDRFSLWDSML | -0.141 |
| EDDGEFSLWDSML | 0.47 |
| EDDKEFSLWDSML | -0.135 |
| EDDPEFSLWDSML | 1.77 |
| EDDREFSLWDSML | -0.175 |
| EDGDEFSLWDSML | 0.533 |
| EDGYSILWSDVY | -0.236 |
| EDKDEFSLWDSML | -0.0707 |
| EDLASILWSDVY | -0.161 |
| EDLGSILWSDVY | -0.0522 |
| EDLKSILWSDVY | < -0.25 |
| EDLPSILWSDVY | < -0.25 |
| EDLRSILWSDVY | < -0.25 |
| EDLYAILWSDVY | -0.11 |
| EDLYGILWSDVY | 0.0695 |
| EDLYKILWSDVY | -0.0738 |
| EDLYPILWSDVY | < -0.25 |

| Sequence | growth estimate |
| --- | --- |
| EDLYSALWSDVY | 0.125 |
| EDLYSGLWSDVY | -0.186 |
| EDLYSIAWSDVY | < -0.25 |
| EDLYSIGWSDVY | -0.212 |
| EDLYSIKWSDVY | -0.245 |
| EDLYSILASDVY | -0.238 |
| EDLYSILGSDVY | < -0.25 |
| EDLYSILKSDVY | < -0.25 |
| EDLYSILWADVY | -0.181 |
| EDLYSILWGDVY | -0.152 |
| EDLYSILWKDVY | < -0.25 |
| EDLYSILWPDVY | 1.01 |
| EDLYSILWRDVY | -0.193 |
| EDLYSILWSAVY | -0.107 |
| EDLYSILWSDAY | 0.452 |
| EDLYSILWSDGY | 0.303 |
| EDLYSILWSDKY | -0.125 |
| EDLYSILWSDRY | -0.0848 |
| EDLYSILWSDVA | 0.126 |
